Results on one molecule are retold here after US20240228604A1 (ALCHEMAB THERAPEUTICS, published 2024).

Experiment [1] concerns the target T1, UNC5C recombinant human antigen, Fc-tagged (R&D Systems, #1005-UN) (human, UniProt O95185 41-380, limits assumed).
T1 construct: Bought protein; also called rhUNC5C; not shown: Fc tag of the bought protein
The experiment is described as follows: ELISA, antigen down. In general terms: ELISA stands for enzyme-linked immunosorbent assay.

Experiment [2] concerns the target T2, full-length human UNC5A on fixed HEK293 cells (Retrogenix panel) (human, UniProt Q6ZN44 26-842).
T2 construct: whole, on cells
T2 sequence (looked up): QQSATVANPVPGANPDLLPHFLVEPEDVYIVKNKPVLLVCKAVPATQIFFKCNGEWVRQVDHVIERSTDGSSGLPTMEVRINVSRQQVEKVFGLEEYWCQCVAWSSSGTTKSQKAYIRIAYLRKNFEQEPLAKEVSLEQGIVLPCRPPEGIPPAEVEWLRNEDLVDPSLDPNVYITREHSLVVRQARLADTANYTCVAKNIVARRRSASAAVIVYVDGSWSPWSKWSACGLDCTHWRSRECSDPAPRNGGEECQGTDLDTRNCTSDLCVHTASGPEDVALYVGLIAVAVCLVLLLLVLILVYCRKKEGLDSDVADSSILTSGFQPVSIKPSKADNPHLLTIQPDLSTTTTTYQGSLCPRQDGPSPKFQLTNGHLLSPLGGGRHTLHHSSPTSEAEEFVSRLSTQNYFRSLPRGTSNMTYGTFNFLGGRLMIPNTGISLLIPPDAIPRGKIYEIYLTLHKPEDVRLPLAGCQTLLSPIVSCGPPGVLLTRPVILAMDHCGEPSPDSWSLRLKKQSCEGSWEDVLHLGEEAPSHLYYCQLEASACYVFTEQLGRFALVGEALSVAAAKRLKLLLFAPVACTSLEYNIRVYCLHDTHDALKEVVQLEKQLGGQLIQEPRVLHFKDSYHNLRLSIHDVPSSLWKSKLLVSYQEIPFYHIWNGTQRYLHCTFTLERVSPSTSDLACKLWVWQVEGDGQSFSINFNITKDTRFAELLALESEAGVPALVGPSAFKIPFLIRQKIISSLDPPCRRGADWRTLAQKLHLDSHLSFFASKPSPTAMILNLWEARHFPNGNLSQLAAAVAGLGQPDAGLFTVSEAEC
The experiment is described as follows: Retrogenix cell microarray, fixed HEK293 cells.

Experiment [3] deals with T3, Human recombinant UNC5A (BLI antigen) (Human, UniProt Q6ZN44 26-306).
T3 construct: Captured by His tag; also called UNC5A ectodomain
T3 sequence (Q6ZN44 other isoform, or with tags, fused parts or gaps): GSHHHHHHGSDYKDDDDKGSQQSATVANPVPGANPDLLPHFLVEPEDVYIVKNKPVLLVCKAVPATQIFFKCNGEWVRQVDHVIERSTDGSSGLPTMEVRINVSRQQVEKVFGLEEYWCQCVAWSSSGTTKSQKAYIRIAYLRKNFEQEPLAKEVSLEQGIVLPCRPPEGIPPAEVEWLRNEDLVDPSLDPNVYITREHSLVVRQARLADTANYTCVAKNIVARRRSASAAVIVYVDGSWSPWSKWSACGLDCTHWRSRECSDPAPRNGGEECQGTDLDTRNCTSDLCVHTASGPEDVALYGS
The experiment is described as follows: BLI, antigen captured by His tag, antibody as analyte. The text has this:
(§1) Antigen was loaded as ligand and dipped into antibody as analyte during association, and assay buffer during dissociation.
(§2) Purified recombinant antigens were purchased from a commercial supplier or prepared and purified in-house and details are shown in Table 2.

Experiment [4] deals with T4, Human recombinant UNC5B (BLI antigen) (Human, UniProt Q8IZJ1 27-377).
T4 construct: also called UNC5B ectodomain
Described as above.
Text: as §1, §2

In experiment [5] the target is T5, Human recombinant UNC5D (BLI antigen) (Human, UniProt Q6UXZ4 33-379).
T5 construct: also called UNC5D ectodomain
T5 sequence (Q6UXZ4 other isoform, or with tags, fused parts or gaps): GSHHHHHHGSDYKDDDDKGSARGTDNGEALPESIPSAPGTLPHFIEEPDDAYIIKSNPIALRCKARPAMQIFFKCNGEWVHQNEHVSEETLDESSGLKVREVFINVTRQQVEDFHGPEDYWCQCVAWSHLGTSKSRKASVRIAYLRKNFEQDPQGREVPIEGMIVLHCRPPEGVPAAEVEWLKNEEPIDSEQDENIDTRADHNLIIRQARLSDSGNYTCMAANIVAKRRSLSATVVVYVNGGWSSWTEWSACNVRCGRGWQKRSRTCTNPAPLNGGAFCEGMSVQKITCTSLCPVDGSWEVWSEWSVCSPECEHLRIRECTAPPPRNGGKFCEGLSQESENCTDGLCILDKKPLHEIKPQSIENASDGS
The description is as above.
Text: as §1, §2

The target in experiment [6] is T6, Human Neogenin (R&D Systems catalogue number 8607-NE; BLI antigen) (Human, UniProt Q92859 34-1105).
T6 construct: extracellular domain; Bought protein; also called neogenin-1 ectodomain; NEO1
T6 sequence (looked up): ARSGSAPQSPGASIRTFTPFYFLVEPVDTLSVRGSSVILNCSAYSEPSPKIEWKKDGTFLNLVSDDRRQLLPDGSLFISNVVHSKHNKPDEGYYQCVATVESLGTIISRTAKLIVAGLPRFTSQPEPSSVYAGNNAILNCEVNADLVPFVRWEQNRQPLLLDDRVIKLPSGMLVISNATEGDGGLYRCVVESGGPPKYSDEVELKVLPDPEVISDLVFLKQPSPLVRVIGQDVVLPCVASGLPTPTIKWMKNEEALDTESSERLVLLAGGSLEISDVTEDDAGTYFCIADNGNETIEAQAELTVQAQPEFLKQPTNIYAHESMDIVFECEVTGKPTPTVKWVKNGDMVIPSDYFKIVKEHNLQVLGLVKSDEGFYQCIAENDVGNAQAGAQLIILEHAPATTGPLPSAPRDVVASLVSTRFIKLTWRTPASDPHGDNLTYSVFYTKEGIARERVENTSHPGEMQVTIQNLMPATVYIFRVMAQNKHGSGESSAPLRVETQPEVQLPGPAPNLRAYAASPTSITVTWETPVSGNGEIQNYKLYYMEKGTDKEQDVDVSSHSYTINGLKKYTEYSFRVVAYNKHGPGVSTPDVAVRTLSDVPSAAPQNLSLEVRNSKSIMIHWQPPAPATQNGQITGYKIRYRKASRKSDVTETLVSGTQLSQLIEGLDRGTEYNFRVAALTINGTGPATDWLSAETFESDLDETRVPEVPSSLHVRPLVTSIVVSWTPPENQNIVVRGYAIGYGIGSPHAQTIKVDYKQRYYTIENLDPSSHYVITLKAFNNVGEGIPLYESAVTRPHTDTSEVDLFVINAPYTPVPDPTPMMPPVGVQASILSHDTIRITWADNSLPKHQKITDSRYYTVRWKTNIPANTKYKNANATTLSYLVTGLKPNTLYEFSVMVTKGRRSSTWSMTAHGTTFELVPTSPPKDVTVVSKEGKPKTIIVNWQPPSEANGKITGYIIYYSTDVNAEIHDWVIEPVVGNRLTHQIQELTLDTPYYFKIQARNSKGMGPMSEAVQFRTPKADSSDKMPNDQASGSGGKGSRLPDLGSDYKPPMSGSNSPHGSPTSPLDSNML
The experiment is described as above.
Text: as §1, §2

In experiment [7] the target is T7, Human recombinant DCC (BLI antigen) (Human, UniProt P43146 26-1097).
T7 construct: also called Netrin receptor DCC ectodomain
T7 sequence (P43146 other isoform, or with tags, fused parts or gaps): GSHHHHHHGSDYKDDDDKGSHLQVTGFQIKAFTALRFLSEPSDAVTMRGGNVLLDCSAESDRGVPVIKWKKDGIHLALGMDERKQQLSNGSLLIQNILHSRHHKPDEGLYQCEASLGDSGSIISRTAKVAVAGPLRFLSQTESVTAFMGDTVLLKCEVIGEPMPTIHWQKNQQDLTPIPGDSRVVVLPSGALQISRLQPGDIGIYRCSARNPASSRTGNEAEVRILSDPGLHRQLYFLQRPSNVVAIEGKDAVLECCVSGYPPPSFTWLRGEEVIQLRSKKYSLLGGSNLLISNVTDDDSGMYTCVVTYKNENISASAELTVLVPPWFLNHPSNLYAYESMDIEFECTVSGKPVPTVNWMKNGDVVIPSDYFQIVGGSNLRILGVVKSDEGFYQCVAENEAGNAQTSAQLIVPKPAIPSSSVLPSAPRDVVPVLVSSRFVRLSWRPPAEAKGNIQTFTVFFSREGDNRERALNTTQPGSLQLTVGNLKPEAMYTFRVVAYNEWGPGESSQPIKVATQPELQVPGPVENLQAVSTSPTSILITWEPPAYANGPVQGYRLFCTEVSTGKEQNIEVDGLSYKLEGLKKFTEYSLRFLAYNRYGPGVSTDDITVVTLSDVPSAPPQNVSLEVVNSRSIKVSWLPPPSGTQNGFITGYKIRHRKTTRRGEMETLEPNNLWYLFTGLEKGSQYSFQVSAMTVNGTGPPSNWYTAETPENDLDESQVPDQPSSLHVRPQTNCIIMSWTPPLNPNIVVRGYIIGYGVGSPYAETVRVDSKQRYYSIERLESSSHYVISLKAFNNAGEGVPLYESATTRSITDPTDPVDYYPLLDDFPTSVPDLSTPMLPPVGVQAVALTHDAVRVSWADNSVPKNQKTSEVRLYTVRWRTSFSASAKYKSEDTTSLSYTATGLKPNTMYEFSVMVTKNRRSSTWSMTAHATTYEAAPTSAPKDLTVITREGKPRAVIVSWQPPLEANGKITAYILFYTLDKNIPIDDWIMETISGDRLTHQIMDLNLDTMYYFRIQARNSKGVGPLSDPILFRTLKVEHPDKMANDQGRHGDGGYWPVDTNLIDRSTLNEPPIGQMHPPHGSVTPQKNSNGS
Described as above.
Text: as §1, §2

T1 sequence (O95185 41-380 limits assumed): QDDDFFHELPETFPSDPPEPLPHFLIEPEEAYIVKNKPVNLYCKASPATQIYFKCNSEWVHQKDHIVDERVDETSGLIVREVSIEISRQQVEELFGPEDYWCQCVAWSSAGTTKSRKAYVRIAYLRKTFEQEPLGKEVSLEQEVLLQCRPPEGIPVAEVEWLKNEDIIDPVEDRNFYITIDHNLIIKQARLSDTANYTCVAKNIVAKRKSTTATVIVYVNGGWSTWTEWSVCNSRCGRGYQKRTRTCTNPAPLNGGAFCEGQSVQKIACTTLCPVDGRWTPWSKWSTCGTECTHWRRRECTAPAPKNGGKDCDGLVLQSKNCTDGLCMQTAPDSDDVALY

B1: ATL_0006178 (antibody, IgG1, V domains shown)
VH: QVQLQESGPGLVKPSETLSLTCTVSGGSISSYFWSWIRQPPGKGLEWIGYIHYSGTTNQNPSLKSRVTISVDKSKNQFSLKLSSVTAADTAVYYCARGRGMATLPFDYWGQGTLVTVSS
VL: not shown
notes: Combination variant of ATL_5262 (T82K, Q67 kept, N58Y); also called ATL_6178; ATL6178
Turning to B1, the EC50 (in general, the concentration that produces a half-maximal response) in experiment [1] is 8 nM. In addition, the binding result in experiment [2] is given as “no binding”; in experiment [3] it was “no binding (tested: up to 100 nM)”; in experiment [4] it was “no binding (tested: up to 100 nM)”; in experiment [5] it was “no binding (tested: up to 100 nM)”; in experiment [6] it was “no binding (tested: up to 100 nM)”; in experiment [7], “no binding (tested: up to 100 nM)”.
